Data: article PMC9482650, “Quantitative fragmentomics allow affinity mapping of interactomes” (Nature Communications, 2022)

T1: RAPGEF6, Q8TEU7
T1 sequence (Q8TEU7 525-625, limits assumed, looked up): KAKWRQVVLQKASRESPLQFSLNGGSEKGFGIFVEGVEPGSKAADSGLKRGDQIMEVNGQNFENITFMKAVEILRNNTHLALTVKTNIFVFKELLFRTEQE

T2: GRIP1_2, Q9Y3R0
T2 sequence (Q9Y3R0 145-248, limits assumed, looked up): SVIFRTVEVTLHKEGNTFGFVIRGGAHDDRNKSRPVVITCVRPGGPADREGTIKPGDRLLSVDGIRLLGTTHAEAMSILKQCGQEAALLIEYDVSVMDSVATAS

T3: RADIL, Q96JH8
T3 sequence (Q96JH8 971-1071, limits assumed, looked up): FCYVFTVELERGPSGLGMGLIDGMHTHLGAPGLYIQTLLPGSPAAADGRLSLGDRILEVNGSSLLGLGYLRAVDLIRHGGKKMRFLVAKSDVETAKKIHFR

T4: TJP3_3, O95049
T4 sequence (O95049 375-456, limits assumed, looked up): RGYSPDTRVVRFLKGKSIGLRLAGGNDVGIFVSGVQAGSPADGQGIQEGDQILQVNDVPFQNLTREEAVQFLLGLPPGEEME

T5: GRIP1_5, Q9Y3R0
T5 sequence (Q9Y3R0 568-668, limits assumed, looked up): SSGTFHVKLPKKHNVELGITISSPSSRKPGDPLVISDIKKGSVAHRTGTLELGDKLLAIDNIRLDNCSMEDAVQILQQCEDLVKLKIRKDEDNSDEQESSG

T6: RHPN1, Q8TCX5
T6 sequence (Q8TCX5 508-602, limits assumed, looked up): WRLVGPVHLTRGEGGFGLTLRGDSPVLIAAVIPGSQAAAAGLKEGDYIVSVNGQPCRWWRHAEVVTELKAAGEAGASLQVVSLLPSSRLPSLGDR

T7: PDZRN3_1, Q9UPQ7
T7 sequence (Q9UPQ7 244-349, limits assumed, looked up): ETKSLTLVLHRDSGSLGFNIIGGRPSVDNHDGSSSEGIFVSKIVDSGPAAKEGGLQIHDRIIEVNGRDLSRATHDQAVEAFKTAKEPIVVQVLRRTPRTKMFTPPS

T8: FRMPD1, Q5SYB0
T8 sequence (Q5SYB0 52-145, limits assumed, looked up): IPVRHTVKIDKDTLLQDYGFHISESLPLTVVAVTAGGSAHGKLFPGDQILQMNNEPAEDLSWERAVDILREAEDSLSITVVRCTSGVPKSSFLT

T9: GRIP1_3, Q9Y3R0
T9 sequence (Q9Y3R0 247-346, limits assumed, looked up): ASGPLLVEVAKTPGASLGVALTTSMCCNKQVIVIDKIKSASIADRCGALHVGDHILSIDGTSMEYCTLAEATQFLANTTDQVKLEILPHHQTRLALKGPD

T10: LIN7A, O14910
T10 sequence (O14910 103-200, limits assumed, looked up): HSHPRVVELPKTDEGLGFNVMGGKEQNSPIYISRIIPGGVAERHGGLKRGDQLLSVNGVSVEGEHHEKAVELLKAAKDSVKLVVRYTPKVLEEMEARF

B1: SIPA1, Q96FS4 (peptide)
chain: QLGSPTADLA
B2: GYPC, P04921 (peptide)
chain: GDSSRKEYFI
B3: CLDN8, P56748 (peptide)
chain: PSVYSRSQYV
B4: MCC, P23508 (peptide)
chain: SRPHTNETSL

What was measured:
Test in all cases: holdup assay
Set-up in all cases: key: below the threshold = too weak to quantify, mostly under pKd 3.1 to 4
Details in all cases: plain residues with an end cap or a label only (N-terminal biotin on a linker: ado-ado)
RAPGEF6, Q8TEU7 = target: T1, RAPGEF6, Q8TEU7
HTRA1, Q92743 = target: HTRA1, Q92743
Sequence of HTRA1, Q92743 (Q92743 360-477): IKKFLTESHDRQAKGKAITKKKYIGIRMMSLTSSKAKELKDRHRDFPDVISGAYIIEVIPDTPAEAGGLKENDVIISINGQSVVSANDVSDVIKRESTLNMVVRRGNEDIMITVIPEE

DLG5_1, Q8TDM6 = target: DLG5_1, Q8TDM6
Sequence of DLG5_1, Q8TDM6 (Q8TDM6 617-713): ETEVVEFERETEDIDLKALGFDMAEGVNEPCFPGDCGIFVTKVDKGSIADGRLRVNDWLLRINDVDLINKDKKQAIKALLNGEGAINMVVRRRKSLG

GRIP1_2, Q9Y3R0 = target: T2, GRIP1_2, Q9Y3R0
RADIL, Q96JH8 = target: T3, RADIL, Q96JH8
Inadl_10, Q8NI35 = target: Inadl_10, Q8NI35
Sequence of Inadl_10, Q8NI35 (Q8NI35 1673-1763): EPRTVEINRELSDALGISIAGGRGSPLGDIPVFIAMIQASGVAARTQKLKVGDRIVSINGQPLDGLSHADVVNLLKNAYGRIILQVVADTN

PDZRN4_1, Q6ZMN7 = target: PDZRN4_1, Q6ZMN7
Sequence of PDZRN4_1, Q6ZMN7 (Q6ZMN7 213-318): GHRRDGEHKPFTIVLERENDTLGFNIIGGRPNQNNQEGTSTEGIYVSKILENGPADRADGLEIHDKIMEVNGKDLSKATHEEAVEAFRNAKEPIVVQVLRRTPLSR

DLG4_3, P78352 = target: DLG4_3, P78352
Sequence of DLG4_3, P78352 (P78352 306-403): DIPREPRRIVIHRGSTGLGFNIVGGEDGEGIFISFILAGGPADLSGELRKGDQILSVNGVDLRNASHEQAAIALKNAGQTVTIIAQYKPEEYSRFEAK

TJP3_3, O95049 = target: T4, TJP3_3, O95049
GOPC, Q9HD26 = target: GOPC, Q9HD26
DLG1_1, Q12959 = target: DLG1_1, Q12959
GORASP2, Q9H8Y8 = target: GORASP2, Q9H8Y8
TJP2_1, Q9UDY2 = target: TJP2_1, Q9UDY2
Sequence of TJP2_1, Q9UDY2 (Q9UDY2 24-128): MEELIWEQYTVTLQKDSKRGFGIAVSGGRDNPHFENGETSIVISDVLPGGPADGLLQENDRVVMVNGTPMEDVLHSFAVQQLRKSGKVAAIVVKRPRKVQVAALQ

SCRIB_1, Q14160 = target: SCRIB_1, Q14160
Sequence of SCRIB_1, Q14160 (Q14160 718-814): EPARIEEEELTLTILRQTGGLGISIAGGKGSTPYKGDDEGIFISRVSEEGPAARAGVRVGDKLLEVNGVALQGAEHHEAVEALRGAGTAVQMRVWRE

LNX1_3, Q8TBB1 = target: LNX1_3, Q8TBB1
Sequence of LNX1_3, Q8TBB1 (Q8TBB1 500-596): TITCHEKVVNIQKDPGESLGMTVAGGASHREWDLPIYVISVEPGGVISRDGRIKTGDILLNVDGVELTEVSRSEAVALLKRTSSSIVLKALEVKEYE

MAGI1_1, Q96QZ7 = target: MAGI1_1, Q96QZ7
Sequence of MAGI1_1, Q96QZ7 (Q96QZ7 1-106): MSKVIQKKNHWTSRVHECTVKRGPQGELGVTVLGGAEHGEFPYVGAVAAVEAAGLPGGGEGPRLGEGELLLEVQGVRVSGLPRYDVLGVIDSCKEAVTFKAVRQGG

GORASP1, Q9BQQ3 = target: GORASP1, Q9BQQ3
Sequence of GORASP1, Q9BQQ3 (Q9BQQ3 1-208): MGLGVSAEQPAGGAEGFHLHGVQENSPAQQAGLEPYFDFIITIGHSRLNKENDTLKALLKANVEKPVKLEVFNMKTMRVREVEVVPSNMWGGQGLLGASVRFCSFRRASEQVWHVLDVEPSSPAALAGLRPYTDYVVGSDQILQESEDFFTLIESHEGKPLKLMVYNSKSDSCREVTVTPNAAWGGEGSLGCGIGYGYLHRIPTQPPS

GRIP1_5, Q9Y3R0 = target: T5, GRIP1_5, Q9Y3R0
NHERF4_2, Q86UT5 = target: NHERF4_2, Q86UT5
Sequence of NHERF4_2, Q86UT5 (Q86UT5 220-308): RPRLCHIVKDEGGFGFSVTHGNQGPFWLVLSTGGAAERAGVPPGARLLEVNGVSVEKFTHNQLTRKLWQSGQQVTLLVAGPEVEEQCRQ

NHERF4_4, Q86UT5 = target: NHERF4_4, Q86UT5
Sequence of NHERF4_4, Q86UT5 (Q86UT5 464-550): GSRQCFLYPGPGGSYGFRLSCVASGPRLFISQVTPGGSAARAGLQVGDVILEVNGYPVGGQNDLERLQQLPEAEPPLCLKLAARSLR

RHPN1, Q8TCX5 = target: T6, RHPN1, Q8TCX5
PDZRN3_1, Q9UPQ7 = target: T7, PDZRN3_1, Q9UPQ7
FRMPD1, Q5SYB0 = target: T8, FRMPD1, Q5SYB0
LNX1_1, Q8TBB1 = target: LNX1_1, Q8TBB1
Sequence of LNX1_1, Q8TBB1 (Q8TBB1 261-371): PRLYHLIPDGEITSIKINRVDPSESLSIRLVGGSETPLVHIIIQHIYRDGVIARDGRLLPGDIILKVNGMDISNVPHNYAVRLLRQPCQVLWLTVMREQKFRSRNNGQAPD

MAST2, Q6P0Q8 = target: MAST2, Q6P0Q8
Sequence of MAST2, Q6P0Q8 (Q6P0Q8 1099-1202): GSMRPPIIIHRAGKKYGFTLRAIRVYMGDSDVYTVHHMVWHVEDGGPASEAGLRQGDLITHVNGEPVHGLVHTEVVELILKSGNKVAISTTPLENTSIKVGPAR

GRIP1_3, Q9Y3R0 = target: T9, GRIP1_3, Q9Y3R0
PDLIM1, O00151 = target: PDLIM1, O00151
Sequence of PDLIM1, O00151 (O00151 1-87): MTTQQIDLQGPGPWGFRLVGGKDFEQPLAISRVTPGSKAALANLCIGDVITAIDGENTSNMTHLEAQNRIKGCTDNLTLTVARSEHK

LIN7A, O14910 = target: T10, LIN7A, O14910

Row | Binder | pKd (RAPGEF6, Q8TEU7) | pKd (HTRA1, Q92743) | pKd (DLG5_1, Q8TDM6) | pKd (GRIP1_2, Q9Y3R0) | pKd (RADIL, Q96JH8) | pKd (Inadl_10, Q8NI35) | pKd (PDZRN4_1, Q6ZMN7) | pKd (DLG4_3, P78352) | pKd (TJP3_3, O95049) | pKd (GOPC, Q9HD26) | pKd (DLG1_1, Q12959) | pKd (GORASP2, Q9H8Y8) | pKd (TJP2_1, Q9UDY2) | pKd (SCRIB_1, Q14160) | pKd (LNX1_3, Q8TBB1) | pKd (MAGI1_1, Q96QZ7) | pKd (GORASP1, Q9BQQ3) | pKd (GRIP1_5, Q9Y3R0) | pKd (NHERF4_2, Q86UT5) | pKd (NHERF4_4, Q86UT5) | other results
1 | B1 | below the threshold | below the threshold | below the threshold | below the threshold | below the threshold | below the threshold | below the threshold | below the threshold | below the threshold | below the threshold | below the threshold | below the threshold | below the threshold | below the threshold | below the threshold | below the threshold | below the threshold | below the threshold | below the threshold | below the threshold | pKd (RHPN1, Q8TCX5): below the threshold; pKd (PDZRN3_1, Q9UPQ7): below the threshold; pKd (FRMPD1, Q5SYB0): below the threshold; pKd (LNX1_1, Q8TBB1): below the threshold; pKd (MAST2, Q6P0Q8): below the threshold; pKd (GRIP1_3, Q9Y3R0): below the threshold; pKd (PDLIM1, O00151): below the threshold; pKd (LIN7A, O14910): below the threshold
2 | B2 | below the threshold | 4.74 | below the threshold | below the threshold | 4.43 | below the threshold | below the threshold | below the threshold | 3.69 | below the threshold | 3.49 | 4.61 | below the threshold | below the threshold | below the threshold | below the threshold | 4.33 | below the threshold | below the threshold | below the threshold | pKd (RHPN1, Q8TCX5): below the threshold; pKd (PDZRN3_1, Q9UPQ7): below the threshold; pKd (FRMPD1, Q5SYB0): below the threshold; pKd (LNX1_1, Q8TBB1): below the threshold; pKd (MAST2, Q6P0Q8): 3.68; pKd (GRIP1_3, Q9Y3R0): below the threshold; pKd (PDLIM1, O00151): below the threshold; pKd (LIN7A, O14910): below the threshold
3 | B3 | below the threshold | 5.03 | below the threshold | below the threshold | 5.17 | below the threshold | below the threshold | below the threshold | 3.82 | below the threshold | below the threshold | 4.88 | 4.87 | below the threshold | below the threshold | below the threshold | 4.55 | below the threshold | below the threshold | below the threshold | pKd (RHPN1, Q8TCX5): below the threshold; pKd (PDZRN3_1, Q9UPQ7): below the threshold; pKd (FRMPD1, Q5SYB0): below the threshold; pKd (LNX1_1, Q8TBB1): below the threshold; pKd (MAST2, Q6P0Q8): below the threshold; pKd (GRIP1_3, Q9Y3R0): below the threshold; pKd (PDLIM1, O00151): below the threshold; pKd (LIN7A, O14910): below the threshold
4 | B4 | below the threshold | below the threshold | below the threshold | below the threshold | below the threshold | below the threshold | 5.22 | 3.95 | below the threshold | 3.9 | 3.72 | below the threshold | below the threshold | 5.26 | below the threshold | below the threshold | below the threshold | below the threshold | below the threshold | below the threshold | pKd (RHPN1, Q8TCX5): 4.64; pKd (PDZRN3_1, Q9UPQ7): 4.99; pKd (FRMPD1, Q5SYB0): below the threshold; pKd (LNX1_1, Q8TBB1): below the threshold; pKd (MAST2, Q6P0Q8): 5.66; pKd (GRIP1_3, Q9Y3R0): below the threshold; pKd (PDLIM1, O00151): below the threshold; pKd (LIN7A, O14910): below the threshold
